From patent US20240239907A1 (EDELWEISS IMMUNE, published 2024)

Tests used:
human CXCR6 = target: T1, human CXCR6 (human, UniProt O00574 1-342); experiment: screening on cells overexpressing CXCR6, one single concentration, yes/no
T1 construct: also called hu-CXCR6; wild type human CXCR6

cynomolgus monkey CXCR6 = target: T2, cynomolgus monkey CXCR6 (cynomolgus monkey, UniProt Q9BDS6 1-343); experiment: as above
T2 construct: also called cyno-CXCR6; cyno monkey CXCR6
T2 sequence: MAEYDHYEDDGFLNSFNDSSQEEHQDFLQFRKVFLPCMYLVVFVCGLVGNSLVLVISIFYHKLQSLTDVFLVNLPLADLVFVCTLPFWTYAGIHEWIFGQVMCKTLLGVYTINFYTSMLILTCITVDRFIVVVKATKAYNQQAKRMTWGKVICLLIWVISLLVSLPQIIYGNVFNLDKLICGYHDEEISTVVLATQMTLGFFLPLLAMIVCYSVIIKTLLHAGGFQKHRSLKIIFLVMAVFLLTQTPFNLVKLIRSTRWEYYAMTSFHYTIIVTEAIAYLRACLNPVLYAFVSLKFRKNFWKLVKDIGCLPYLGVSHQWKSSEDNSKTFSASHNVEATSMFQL

[1] = target: T3, N-terminal fusion protein linking the extracellular N terminus of human CXCR6 and the Fc region of human IgG1 (human, not fully specified); experiment: antibody pre-incubated with N-terminus-Fc fusion before staining human CXCR6 cells, flow cytometry (FIG. 12B)
T3 construct: not shown: Fc region of human IgG1
T3 chain: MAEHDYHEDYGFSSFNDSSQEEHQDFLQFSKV
Experimental: Three candidate antibodies that bind only to human CXCR6 and three candidate antibodies that bind to both human and cyno CXCR6 were further analyzed to locate their epitope residues. An N-terminal fusion protein was generated by linking the extracellular N terminus of human CXCR6 and the Fc region of human IgG1. Prior to staining cells over-expressing human CXCR6, the candidate antibodies (1 μg/ml) were pre-incubated with the N-terminal fusion protein (25 μg/ml) for 15 minutes at room temperature. A commercial antibody (R&D system, Minneapolis, MN) that only binds to human CXCR6 but not cyno- or mouse-CXCR6, was used as a control antibody.

T1 sequence (O00574 whole entry): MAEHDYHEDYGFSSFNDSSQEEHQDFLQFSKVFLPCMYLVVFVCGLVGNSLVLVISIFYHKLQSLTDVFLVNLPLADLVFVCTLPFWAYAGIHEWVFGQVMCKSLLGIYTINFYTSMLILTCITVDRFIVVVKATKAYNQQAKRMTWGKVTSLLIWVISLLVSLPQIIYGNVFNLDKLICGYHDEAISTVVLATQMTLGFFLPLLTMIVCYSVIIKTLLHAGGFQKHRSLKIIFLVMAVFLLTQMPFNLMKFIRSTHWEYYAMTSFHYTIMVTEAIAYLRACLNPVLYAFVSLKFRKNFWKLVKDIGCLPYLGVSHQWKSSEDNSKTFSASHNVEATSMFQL

B1: Beacon2-G5 (antibody, V domains shown)
VH: EVQLVESGGDLVKPGGSLKLSCAASGFTFSSYGMSWVRQTPDKRLEWVATISSRGSYTYYPDSVKGRLTISRENAKNTLSLQMSSLKSEDTAMYYCARRVFPYWFFDVWGAGTTVTVSS
VL: DIVMTQSHKFMSTSVGDRVSITCKASQDVSTAVAWYQQKSGQSPKLLIYSASYRYTGVPDRFTGSGSGTDFTFTISSVQAEDLAVYYCQQHYTTPYTFGGGTKLEIK
notes: Mouse-derived
- binding result (human CXCR6): binds
- binding result (cynomolgus monkey CXCR6): binds
- binding result [1]: no binding
